Molecular target: T1, wild type α-synuclein (Homo sapiens, UniProt P37840)
T1 construct: made in house; host or cells: Escherichia coli (pTYB1/α-syn; strain ER2566 is named for the mutants)
Assay: Inhibition of fibril formation of wild type α-synuclein by partial structure peptide, TfT fluorescence
Type: biochemical
Details: peptide 0.2 mg/ml in 2 mg/ml wild type α-synuclein, 37° C.
Procedure: A synthetic α-synuclein partial structure peptide consisting of 10 amino acid residues of NH2-[…]COOH was dissolved at 0.2 mg/ml in a 2 mg/ml solution of purified wild type α-synuclein, and incubated at 37° C. Aliquot of 10 μl was collected in predetermined intervals. To the collected sample was added a buffer solution of 10 mM Tris-HCl, pH 7.4, containing a fluorescent dye thioflavine T (TfT), which specifically binds to a fibril structure, in a final concentration of 25 μM to make a volume of 100 μl, and fluorescence spectrum was monitored immediately (Ex 440 nm; Em 450-550 nm). The fibril formation rate and the amount thereof were determined from the increase in the fluorescence intensity of TfT.

decrease of the fibril formation ability of the wild type α-synuclein (to the extent of): about 20%
Substance: NH2-Val-Gly-Gly-Ala-Thr-Thr-Thr-Gly-Val-Thr-COOH (H-VGGATTTGVT-OH) [α-synuclein partial structure peptide, synthetic α-synuclein partial structure peptide consisting of 10 amino acid residues]

Source: patent US20070213253A1, “Synuclein Mutant Having Aggregation-Inhibitory Activity” (priority 2003, published 2007)
